Measured values: patent publication US20230131338A1

Assays:
[1] = molecular target: human FXI (zymogen; Factor XI protein, human plasma, Enzyme Research Laboratories cat. HFXI 1111) (human) (UniProt P03951); assay: SPR (Biacore 8K), mAb captured via anti-human Fc, plasma-derived hFXI injected, 37°C
[2] = molecular target: human FXIa (activated; Factor XIa protein, human plasma, Enzyme Research Laboratories cat. HFXIa 1111a) (human) (UniProt P03951); assay: SPR (Biacore 8K), mAb captured via anti-human Fc, plasma-derived hFXIa injected, 25°C
[3] = molecular target: human FXI (zymogen; Factor XI protein, human plasma, Enzyme Research Laboratories cat. HFXI 1111) (human) (UniProt P03951); assay: SPR (Biacore 8K), mAb captured via anti-human Fc, plasma-derived hFXI injected, 25°C
[4] = molecular target: human FXIa (activated; Factor XIa protein, human plasma, Enzyme Research Laboratories cat. HFXIa 1111a) (human) (UniProt P03951); assay: SPR (Biacore 8K), mAb captured via anti-human Fc, plasma-derived hFXIa injected, 37°C

25 nM Ag Bound (RU) [1]: 3.2 RU
25 nM Ag Bound (RU) [2]: -1.4 RU
25 nM Ag Bound (RU) [3]: 1.3 RU
25 nM Ag Bound (RU) [4]: 0.3 RU
Substance: Isotype control mAb [REGN1945] (antibody)
